# T1: Human OSM (human, UniProt P13725 26-221)
# T1 construct: Recombinant human OSM; also called hOSM; human Oncostatin M
# T1 sequence: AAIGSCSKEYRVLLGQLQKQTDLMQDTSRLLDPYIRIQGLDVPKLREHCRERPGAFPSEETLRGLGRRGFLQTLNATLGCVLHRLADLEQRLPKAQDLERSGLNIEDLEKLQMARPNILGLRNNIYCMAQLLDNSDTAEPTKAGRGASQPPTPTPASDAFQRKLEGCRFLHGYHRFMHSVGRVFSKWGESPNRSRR
# B1: Pos 96 His (antibody, V domains shown)
# VH: EVQLVESGGGLVQPGGSLRLSCAASGFTFSSYAMSWVRQAPGKGLEWVATISDGGSFTYYLDNVRGRFTISRDNAKNSLYLQMNSLRAEDTAVYYCARDHGHTTFWYFDVWGRGTLVTVSS
# VL: DIVMTQSPDSLAVSLGERATINCRASKSVSAAGYNFMHWYQQKPGQPPKVLIYYASNLESGVPDRFSGSGSGTDFTLTISSLQAEDVAVYYCLHSREFPFTFGGGTKVEIKR
# notes: also called CDRH3 V96>H
# B2: Pos 99 Cys (antibody, V domains shown)
# VH: EVQLVESGGGLVQPGGSLRLSCAASGFTFSSYAMSWVRQAPGKGLEWVATISDGGSFTYYLDNVRGRFTISRDNAKNSLYLQMNSLRAEDTAVYYCARDVGHCTFWYFDVWGRGTLVTVSS
# VL: DIVMTQSPDSLAVSLGERATINCRASKSVSAAGYNFMHWYQQKPGQPPKVLIYYASNLESGVPDRFSGSGSGTDFTLTISSLQAEDVAVYYCLHSREFPFTFGGGTKVEIKR
# notes: also called CDRH3 T99>C
# B3: Pos 98 Gln (antibody, V domains shown)
# VH: EVQLVESGGGLVQPGGSLRLSCAASGFTFSSYAMSWVRQAPGKGLEWVATISDGGSFTYYLDNVRGRFTISRDNAKNSLYLQMNSLRAEDTAVYYCARDVGQTTFWYFDVWGRGTLVTVSS
# VL: DIVMTQSPDSLAVSLGERATINCRASKSVSAAGYNFMHWYQQKPGQPPKVLIYYASNLESGVPDRFSGSGSGTDFTLTISSLQAEDVAVYYCLHSREFPFTFGGGTKVEIKR
# notes: also called CDRH3 H98>Q
# B4: Pos 96 Lys (antibody, V domains shown)
# VH: EVQLVESGGGLVQPGGSLRLSCAASGFTFSSYAMSWVRQAPGKGLEWVATISDGGSFTYYLDNVRGRFTISRDNAKNSLYLQMNSLRAEDTAVYYCARDKGHTTFWYFDVWGRGTLVTVSS
# VL: DIVMTQSPDSLAVSLGERATINCRASKSVSAAGYNFMHWYQQKPGQPPKVLIYYASNLESGVPDRFSGSGSGTDFTLTISSLQAEDVAVYYCLHSREFPFTFGGGTKVEIKR
# notes: also called CDRH3 V96>K
# B5: Pos 100C Glu (antibody, V domains shown)
# VH: EVQLVESGGGLVQPGGSLRLSCAASGFTFSSYAMSWVRQAPGKGLEWVATISDGGSFTYYLDNVRGRFTISRDNAKNSLYLQMNSLRAEDTAVYYCARDVGHTTFWEFDVWGRGTLVTVSS
# VL: DIVMTQSPDSLAVSLGERATINCRASKSVSAAGYNFMHWYQQKPGQPPKVLIYYASNLESGVPDRFSGSGSGTDFTLTISSLQAEDVAVYYCLHSREFPFTFGGGTKVEIKR
# notes: also called CDRH3 Y100C>E
# B6: Pos 97 Phe (antibody, V domains shown)
# VH: EVQLVESGGGLVQPGGSLRLSCAASGFTFSSYAMSWVRQAPGKGLEWVATISDGGSFTYYLDNVRGRFTISRDNAKNSLYLQMNSLRAEDTAVYYCARDVFHTTFWYFDVWGRGTLVTVSS
# VL: DIVMTQSPDSLAVSLGERATINCRASKSVSAAGYNFMHWYQQKPGQPPKVLIYYASNLESGVPDRFSGSGSGTDFTLTISSLQAEDVAVYYCLHSREFPFTFGGGTKVEIKR
# notes: also called CDRH3 G97>F
# B7: Pos 100C Gly (antibody, V domains shown)
# VH: EVQLVESGGGLVQPGGSLRLSCAASGFTFSSYAMSWVRQAPGKGLEWVATISDGGSFTYYLDNVRGRFTISRDNAKNSLYLQMNSLRAEDTAVYYCARDVGHTTFWGFDVWGRGTLVTVSS
# VL: DIVMTQSPDSLAVSLGERATINCRASKSVSAAGYNFMHWYQQKPGQPPKVLIYYASNLESGVPDRFSGSGSGTDFTLTISSLQAEDVAVYYCLHSREFPFTFGGGTKVEIKR
# notes: also called CDRH3 Y100C>G
# B8: Pos 98 Ala (antibody, V domains shown)
# VH: EVQLVESGGGLVQPGGSLRLSCAASGFTFSSYAMSWVRQAPGKGLEWVATISDGGSFTYYLDNVRGRFTISRDNAKNSLYLQMNSLRAEDTAVYYCARDVGATTFWYFDVWGRGTLVTVSS
# VL: DIVMTQSPDSLAVSLGERATINCRASKSVSAAGYNFMHWYQQKPGQPPKVLIYYASNLESGVPDRFSGSGSGTDFTLTISSLQAEDVAVYYCLHSREFPFTFGGGTKVEIKR
# notes: also called CDRH3 H98>A
# B9: Pos 100B Glu (antibody, V domains shown)
# VH: EVQLVESGGGLVQPGGSLRLSCAASGFTFSSYAMSWVRQAPGKGLEWVATISDGGSFTYYLDNVRGRFTISRDNAKNSLYLQMNSLRAEDTAVYYCARDVGHTTFEYFDVWGRGTLVTVSS
# VL: DIVMTQSPDSLAVSLGERATINCRASKSVSAAGYNFMHWYQQKPGQPPKVLIYYASNLESGVPDRFSGSGSGTDFTLTISSLQAEDVAVYYCLHSREFPFTFGGGTKVEIKR
# notes: also called CDRH3 W100B>E
# B10: Pos 97 Cys (antibody, V domains shown)
# VH: EVQLVESGGGLVQPGGSLRLSCAASGFTFSSYAMSWVRQAPGKGLEWVATISDGGSFTYYLDNVRGRFTISRDNAKNSLYLQMNSLRAEDTAVYYCARDVCHTTFWYFDVWGRGTLVTVSS
# VL: DIVMTQSPDSLAVSLGERATINCRASKSVSAAGYNFMHWYQQKPGQPPKVLIYYASNLESGVPDRFSGSGSGTDFTLTISSLQAEDVAVYYCLHSREFPFTFGGGTKVEIKR
# notes: also called CDRH3 G97>C
# B11: Pos 98 Gly (antibody, V domains shown)
# VH: EVQLVESGGGLVQPGGSLRLSCAASGFTFSSYAMSWVRQAPGKGLEWVATISDGGSFTYYLDNVRGRFTISRDNAKNSLYLQMNSLRAEDTAVYYCARDVGGTTFWYFDVWGRGTLVTVSS
# VL: DIVMTQSPDSLAVSLGERATINCRASKSVSAAGYNFMHWYQQKPGQPPKVLIYYASNLESGVPDRFSGSGSGTDFTLTISSLQAEDVAVYYCLHSREFPFTFGGGTKVEIKR
# notes: also called CDRH3 H98>G
# B12: Pos 100D Ala (antibody, V domains shown)
# VH: EVQLVESGGGLVQPGGSLRLSCAASGFTFSSYAMSWVRQAPGKGLEWVATISDGGSFTYYLDNVRGRFTISRDNAKNSLYLQMNSLRAEDTAVYYCARDVGHTTFWYADVWGRGTLVTVSS
# VL: DIVMTQSPDSLAVSLGERATINCRASKSVSAAGYNFMHWYQQKPGQPPKVLIYYASNLESGVPDRFSGSGSGTDFTLTISSLQAEDVAVYYCLHSREFPFTFGGGTKVEIKR
# notes: also called CDRH3 F100D>A
# B13: Pos 99 Ala (antibody, V domains shown)
# VH: EVQLVESGGGLVQPGGSLRLSCAASGFTFSSYAMSWVRQAPGKGLEWVATISDGGSFTYYLDNVRGRFTISRDNAKNSLYLQMNSLRAEDTAVYYCARDVGHATFWYFDVWGRGTLVTVSS
# VL: DIVMTQSPDSLAVSLGERATINCRASKSVSAAGYNFMHWYQQKPGQPPKVLIYYASNLESGVPDRFSGSGSGTDFTLTISSLQAEDVAVYYCLHSREFPFTFGGGTKVEIKR
# notes: also called CDRH3 T99>A
# B14: Pos 97 Met (antibody, V domains shown)
# VH: EVQLVESGGGLVQPGGSLRLSCAASGFTFSSYAMSWVRQAPGKGLEWVATISDGGSFTYYLDNVRGRFTISRDNAKNSLYLQMNSLRAEDTAVYYCARDVMHTTFWYFDVWGRGTLVTVSS
# VL: DIVMTQSPDSLAVSLGERATINCRASKSVSAAGYNFMHWYQQKPGQPPKVLIYYASNLESGVPDRFSGSGSGTDFTLTISSLQAEDVAVYYCLHSREFPFTFGGGTKVEIKR
# notes: also called CDRH3 G97>M
# B15: Pos 97 Ala (antibody, V domains shown)
# VH: EVQLVESGGGLVQPGGSLRLSCAASGFTFSSYAMSWVRQAPGKGLEWVATISDGGSFTYYLDNVRGRFTISRDNAKNSLYLQMNSLRAEDTAVYYCARDVAHTTFWYFDVWGRGTLVTVSS
# VL: DIVMTQSPDSLAVSLGERATINCRASKSVSAAGYNFMHWYQQKPGQPPKVLIYYASNLESGVPDRFSGSGSGTDFTLTISSLQAEDVAVYYCLHSREFPFTFGGGTKVEIKR
# notes: also called CDRH3 G97>A
# B16: Pos 98 Phe (antibody, V domains shown)
# VH: EVQLVESGGGLVQPGGSLRLSCAASGFTFSSYAMSWVRQAPGKGLEWVATISDGGSFTYYLDNVRGRFTISRDNAKNSLYLQMNSLRAEDTAVYYCARDVGFTTFWYFDVWGRGTLVTVSS
# VL: DIVMTQSPDSLAVSLGERATINCRASKSVSAAGYNFMHWYQQKPGQPPKVLIYYASNLESGVPDRFSGSGSGTDFTLTISSLQAEDVAVYYCLHSREFPFTFGGGTKVEIKR
# notes: also called CDRH3 H98>F
# B17: Pos 100C Phe (antibody, V domains shown)
# VH: EVQLVESGGGLVQPGGSLRLSCAASGFTFSSYAMSWVRQAPGKGLEWVATISDGGSFTYYLDNVRGRFTISRDNAKNSLYLQMNSLRAEDTAVYYCARDVGHTTFWFFDVWGRGTLVTVSS
# VL: DIVMTQSPDSLAVSLGERATINCRASKSVSAAGYNFMHWYQQKPGQPPKVLIYYASNLESGVPDRFSGSGSGTDFTLTISSLQAEDVAVYYCLHSREFPFTFGGGTKVEIKR
# notes: also called CDRH3 Y100C>F
# B18: Pos 96 Phe (antibody, V domains shown)
# VH: EVQLVESGGGLVQPGGSLRLSCAASGFTFSSYAMSWVRQAPGKGLEWVATISDGGSFTYYLDNVRGRFTISRDNAKNSLYLQMNSLRAEDTAVYYCARDFGHTTFWYFDVWGRGTLVTVSS
# VL: DIVMTQSPDSLAVSLGERATINCRASKSVSAAGYNFMHWYQQKPGQPPKVLIYYASNLESGVPDRFSGSGSGTDFTLTISSLQAEDVAVYYCLHSREFPFTFGGGTKVEIKR
# notes: also called CDRH3 V96>F
# Target: T1, Human OSM
# Test: SPR (ProteOn XPR36 or Biacore T100), captured supernatant, OSM as analyte
# Protocol: The initial kinetic analyses for the CDRH3 screen were carried out on the ProteOn XPR36 (Biorad Laboratories) and certain supernatants were selected for more accurate kinetic analysis on the BiaCore T100.
# For the ProteOn analysis, anti-human IgG (GE Healthcare/Biacore BR-1008-39) was coupled to a GLM chip (Biorad Laboratories 176-5012) by primary amine coupling. The CDRH3 variants were captured directly on to this surface and recombinant human OSM was passed over the captured antibody surface at 256, 64, 16, 4 and 1 nM, with a buffer injection alone (i.e. 0 nM) used to double reference the binding curves. Following the OSM binding event, the capture surfaces were regenerated: with 3M MgCl₂ the regeneration removed the previously captured antibody ready for another cycle of capture and binding analysis. The data was then fitted to the 1:1 model (with mass transport) inherent to the ProteOn analysis software. The run was carried out using HBS-EP (Biacore/GE-Healthcare BR-1006-69) and the analysis temperature was 25° C.
# A similar method was used for analysis of constructs using the Biacore T100, anti-human IgG (GE Healthcare/Biacore BR-1008-39) was coupled to a CM5 chip (GE Healthcare/Biacore BR-1006-68) by primary amine coupling, antibodies were captured on this surface and recombinant human OSM was passed over the captured antibody surface at 256, 64, 16, 4 and 1 nM, with a buffer injection alone (i.e. 0 nM) used to double reference the binding curves. Regeneration was by using pulses of 3M 3M MgCl₂ or 100 mM phosphoric acid or using both reagents. The data was fitted to the 1:1 model inherent to the Biacore T100 analysis software. The run was carried out using HBS-EP (Biacore/GE-Healthcare BR-1006-69) and the analysis temperature was 25° C.
row,Binder,Kd [nM]
1,B1,0.48
2,B2,0.708
3,B3,0.729
4,B4,0.671
5,B5,0.482
6,B6,0.637
7,B7,0.388
8,B8,0.659
9,B9,0.491
10,B10,0.651
11,B11,1.11
12,B12,0.869
13,B13,0.541
14,B14,0.809
15,B15,0.486
16,B16,0.325
17,B17,0.365
18,B18,0.61

# Source: patent US20130251724A1 (GlaxoSmithKline, published 2013)
